Test results taken from US7414023B2, “Peptide ligands for prostate specific antigen” (Licentia Ltd., priority 2000, dated 2008).
Bridge positions count the residues as written; N and C are the ends. Square brackets hold non-standard residues; d marks the D form. Ends that are not written are not given here. Peptide text beside a SMILES is read from it. Ahx = NCCCCCC(=O)O

Experiments:
PSA [1] = biological target: T1, PSA (Homo sapiens, UniProt P07288); test: PSA activity measurements with modified peptides, substrate S-2586 (Example 5); type: biochemical; parameters: PSA was purified from human seminal fluid as described previously (3); from tissue; host or cells: human seminal fluid; key to activity of modified peptide (active / inactive): PSA-peptide/PSA ratio above 1.1 was interpreted to be active; below 1.1 as inactive; conditions: for effect of modification on the activity of the peptide (in words): compared with parent A-1, B-2 or C-4; for activity of modified peptide (active / inactive): from PSA-peptide/PSA ratio
Protocol: PSA activity measurements: The effect of different peptides on the activity of PSA was studied by using chymotrypsin substrate S-2586 (MeO-Suc-Arg-Pro-Tyr-pNA) (Chromogenix, Mölndal, Sweden). 77 pmoles (2 μg) of PSA, substrate and 10 μmoles of different peptides were incubated in Tris-buffer (10 mM Tris and 150 mM NaCl at pH 7.8) with 0.2 mM concentration of the substrate at room temperature. PSA reaction without any peptide was used as basic level control. Reaction was measured after 60 minutes incubation at […] using Multiscan RC photometer (Labsystems, Finland). The effect of the peptides was calculated as a ratio from the OD value of PSA-peptide complex to PSA alone after 60 minutes incubation.

PSA [2] = biological target: T1, PSA; test: Enzyme activity of PSA with chromogenic substrate S-2586; type: biochemical; parameters: PSA was purified from human seminal fluid as described previously (3); from tissue; host or cells: human seminal fluid; conditions: for effect of derivatization or labeling on PSA binding activity, read as effect on PSA enzyme activity (in words): PSA (0.33 mM / 0.33 μM as printed); for effect of derivatization or labeling on PSA binding activity, read as effect on PSA enzyme activity (in words) / effect on the enzyme activity of PSA (in words): S-2586; for effect on the enzyme activity of PSA (in words): synthetic peptides in 100-fold molar excess
Protocol: The enzyme activity of PSA was studied in the presence of peptides alone or together with Zn^2+ by using the chymotrypsin substrate S-2586 (MeO-Suc-Arg-Pro-Tyr-pNA) (Chromogenix, Mölndal, Sweden). […] PSA (333 nM) was incubated with a 1-100-fold molar excess of GST-peptide or 100-fold excess of synthetic peptide in TBS buffer, pH 7.8 containing 0.5 g/L BSA for 1 h at 22° C. The effect of Zn^2+ on the enzyme activity of PSA was studied by including 1-200 μM of ZnCl2 in the reaction buffer. The combined effect of peptides and Zn2+ on the enzyme activity of PSA was studied by incubating PSA (333 nM) with peptide (333 nM) in the buffer containing 1-200 μM Zn^2+ for 1 h. After addition of substrate to a final concentration 0.2 mM, the absorbance was monitored at 5-min intervals for 2 h at 405 nm on a Labsystems Multiskan MCC/340 photometer (Labsystems, Helsinki, Finland). As a control, the effect of wild type GST on the enzyme activity of PSA was tested.
In the experiments, PSA (0.33 μM) was incubated with increasing concentrations of GST-C-4 (0-100-fold molar excess) for 1 h, after which the chromogenic substrate S-2586 was added and enzyme activity was monitored by measuring the absorbance at 405 nm. Data represent mean values from duplicate wells ±SE.
PSA (0.33 μM) was incubated with chemically synthesized peptides (100-fold molar excess) for 1 h, after which the chromogenic substrate S-2586 was added and enzyme activity was monitored by measuring the absorbance at 405 nm.
Because zinc is known to inhibit the enzyme activity of PSA, we further characterized the effect of GST-peptides on the enzyme activity of PSA by assessing the combined effect of peptides and Zn^2+. […] The effect of GST-C-4 and Zn^2+ on enzyme activity was determined by incubating PSA (0.33 μM) with the same molar concentration of GST-C-4 and various concentrations of Zn^2+. The reaction was monitored by measuring absorbance at 405 nm after addition of the chromogenic substrate S-2586. […] Data represent mean values from duplicate wells ±SE.
(§1) Data represent mean values from duplicate wells ±SE.
As control the enzyme activity of PSA alone was measured.
as §1
20 μg of the peptide was iodinated by the Iodogen method. After iodination the peptide was purified by using C18 Sep-Pak column.

PSA [3] = biological target: T1, PSA; test: GST-peptide IFMA: binding of GST-peptides to PSA captured by MAb 5E4; parameters: PSA was purified from human seminal fluid as described previously (3); from tissue; host or cells: human seminal fluid; conditions: GST fusion proteins
Protocol: After washing the binding of GST-peptide was quantified by IFMA using an Eu-labelled anti GST antibody as tracer. Data represent mean values from duplicate wells ±standard error (SE).
The solid phase antibodies used in the IFMAs were coated onto microtitration wells at a concentration of 5 μg/mL in TBS for 16 h at 22° C., the solution was discarded and the wells were saturated with 10 g/L bovine serum albumin in TBS for 3 h at 22° C. The antibodies used as tracers were labeled with a Eu^3+ chelate as described previously (26). The assay buffer was 50 mM Tris-HCL, pH 7.7, 150 mM NaCl, 33.3 μM bovine serum albumin, 1 μM bovine globulin.
The binding of individual phage clones to PSA was tested by IFMA (phage IFMA). In the phage IFMA, about 30 ng of PSA was added to MAb 5E4 coated wells for 1 h. After washing (Buffer: 150 mM NaCl, 7.7 mM NaN3, 0.2 g/L Tween 20), 15 μL of phage and 200 μl assay buffer was added. After incubation for 1 h, the wells were washed and filled with 200 μl of assay buffer containing 50 ng europium-labeled anti phage monoclonal antibody recognizing the M13 coat protein of the phage. After incubation for 60 min, the wells were washed 4 times, and enhancement solution (EG&G-Wallac) was added. The fluorescence was quantified with a 1234 DELFIA Research fluorometer (EG&G-Wallac). Binding of GST-peptide to PSA was determined by an IFMA (GST-peptide IFMA) similar to the one for phage peptides except that Eu^3+-labeled antibody to GST was used. Various amounts of GST-peptide or wild type GST were added to wells containing captured PSA in 200 μL of assay buffer and incubated for 1 h. To test the effect of Zn^2+ on the binding between GST-peptide and PSA, various concentrations of Zn^2+ (1-200 μM) were added to the buffer in the incubation step of GST-peptide and PSA. In competition experiments, GST-peptide (167 nM) or wild type GST were first incubated with increasing amounts of PSA (0-333 nM) in 0.5% BSA-TBS buffer for 60 min, then added to wells containing PSA captured by MAb 5E4. After incubation for 1 h the wells were washed and Eu^3+-labeled anti GST antibody was added. After further incubation and washing the bound fluorescence was measured as described above. When assessing the binding of the GST-peptides to other proteinases, including chymotrypsin, cathepsin G, trypsin, and kallikrein, these proteinases were captured by their specific antibodies coated to the microtitration well. Recombinant hK2 was captured by MAb 5E4, which is known to bind hK2 (24). For assessing the binding of the GST-peptides with complexes of PSA, including PSA-ACT and PSA-α1-protease inhibitor (PSA-API) (28), the complexes were captured by antibodies against ACT and API, respectively. After capturing the various proteinases or PSA complexes, GST-peptide was added and binding was monitored as described above for the GST-peptide IFMA.

PSA [4] = biological target: T1, PSA; test: Inhibition of GST-peptide binding to PSA by chemically synthesized peptides; parameters: PSA was purified from human seminal fluid as described previously (3); from tissue; conditions: synthetic peptide GACVAYCIEHHCWTCGA in 20-fold molar excess
Protocol: Peptides A1 and C4 were synthesized by standard solid phase Merrifield peptide synthesis using fmoc-chemistry. The peptides were assayed for binding with PSA by studying the ability of the synthetic peptide to inhibit the binding of the corresponding GST peptide with PSA. Synthetic peptide (0-333 nM) and the corresponding GST peptide (167 nM) were incubated with PSA captured by MAb 5E4 for 1 h. After this, the wells were washed, after which Eu^3+-labeled anti GST antibody was added. After further incubation and washing the bound fluorescence was measured as described above.
PSA had been captured by anti-PSA MAb in the microtitration wells. The binding was measured by IFMA.

PSA [5] = biological target: T1, PSA; test: Proteolytic cleavage of IGF-BP-3 by PSA, IGF-BP-3 IFMA; type: biochemical; parameters: PSA was purified from human seminal fluid as described previously (3); from tissue; host or cells: human seminal fluid; conditions: PSA 5 μg/mL, 100-fold molar excess of synthetic peptide, IGF-BP-3 70 ng/mL, 16 h at 37° C.; PSA alone 30%
Protocol: The extent of the cleavage of the substrate was quantitated by monitoring the decrease in IGF-BP-3 immunoreactivity due to proteolytic cleavage of it. PSA (5 μg/mL) was incubated with IGF-BP-3 (70 ng/mL) for 16 h at 37° C. with 100-fold molar excess of peptides to PSA and measured for IGF-BP3 immunoreactivity by IFMA as described (33). As control, the peptide was also added to the reaction mixture containing PSA and IGF-BP3 just before starting the immunoassay to quantify the possible interference of the peptide in the IFMA for IGF-BP-3.
In the experiments, PSA (5 μg/mL) in TBS buffer, pH 7.8 alone or with 100-fold molar excess of peptide was incubated with IGF-BP-3 (70 ng/mL) for 16 h at 37° C., after which the concentration of intact IGF-BP-3 was determined by IFMA.

T1 sequence (P07288 25-261): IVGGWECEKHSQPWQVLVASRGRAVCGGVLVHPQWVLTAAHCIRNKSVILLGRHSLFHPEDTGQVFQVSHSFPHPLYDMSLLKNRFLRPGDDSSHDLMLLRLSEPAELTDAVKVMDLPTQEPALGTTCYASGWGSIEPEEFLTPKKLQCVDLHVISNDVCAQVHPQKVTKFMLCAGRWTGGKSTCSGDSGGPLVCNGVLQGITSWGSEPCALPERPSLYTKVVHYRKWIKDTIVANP

## CVFAHNYNYLVC (disulfide 1-12 (inferred)) [Peptide B-2-2]
PSA [1]
  effect of modification on the activity of the peptide (in words): did not affect

## Tc99m-labeled C4: reduced C4-peptide labeled with 99mTc between thiol-sulfurs (HDP method) (CVAYCIEHHCWTC; also: 99mTc complexed between reduced thiol sulfurs (HDP method))
PSA [2]; PSA 0.33 μM, 30-fold molar excess, compared with unlabelled C4
  reduction of binding by technetium labeling: about 50%

## CVFTSNYAFC (disulfide 1-10 (inferred)) [Peptide A-1-4]
PSA [1]
  effect of modification on the activity of the peptide (in words): did not affect

## CVAYAIQHHC (disulfide 1-10 (inferred)) [Peptide C-4-4]
PSA [1]
  activity of modified peptide (active / inactive): inactive

## CVFAHNYNALVC (disulfide 1-12 (inferred)) [Peptide B-2-3]
PSA [1]
  effect of modification on the activity of the peptide (in words): activity remained

## CVFTSNYNYC (disulfide 1-10 (inferred)) [Peptide A-1-3]
PSA [1]
  effect of modification on the activity of the peptide (in words): did not affect

## Eu-labelled C4-peptide: C4 peptide labelled with Eu-chelate, C18 fractions 26-28 (CVAYCIEHHCWTC; disulfide 1-13, 5-10; also: Eu-chelate label, site not given here)
PSA [2]; PSA 0.33 μM, 100 μL of C18 fractions 26-28
  effect of Eu-labelled peptide fractions on enzyme activity of PSA: enhanced the enzyme activity of PSA strongly

## 1251-labeled C4: C4-peptide (CVAYCIEHHCWTC) iodinated by the Iodogen method (not fully specified (residue 4, bridges); cysteine pairing not given here)
PSA [2]; 30-fold molar excess
  effect of derivatization or labeling on PSA binding activity, read as effect on PSA enzyme activity (in words): almost completely destroyed its binding activity

## CVAYCIQHHCWTC [Peptide C-4-3]
PSA [1]
  effect of modification on the activity of the peptide (in words): did not affect
  activity of modified peptide (active / inactive): active

## SKSKSKS—aca-CVAYCIEHHCWTC (SKSKSKS[Ahx]CVAYCIEHHCWTC; not fully specified (bridges); printed as SKSKSKS—aca-CVAYCIEHHCWTC; cysteine pairing not given here) [SKSKSKS (SEQ ID NO:47)-tailed C4]
PSA [2]; 30-fold molar excess
  effect of derivatization or labeling on PSA binding activity, read as effect on PSA enzyme activity (in words): did not affect the binding activity

## CVFTSNYAYC (disulfide 1-10 (inferred)) [Peptide A-1-2]
PSA [1]
  effect of modification on the activity of the peptide (in words): did not affect

## CVAYCIEHHCATC [Peptide C-4-6]
PSA [1]
  activity of modified peptide (active / inactive): inactive

## Wild type GST: wild type glutathione S-transferase without inserted peptide, control [reference compound]
PSA [2]
  effect on the enzyme activity of PSA (in words): did not affect
PSA [2]; listed as wild type GST
  effect on the enzyme activity of PSA (in words): no effect
PSA [3]
  binding to PSA in GST-peptide IFMA (in words): did not bind

## CLSTCAQSCRISC [Peptide D-1]
PSA [3]
  binding to PSA in GST-peptide IFMA (in words): did not show significant binding

## CC[C@H](C)[C@@H]1NC(=O)[C@@H]2CSSC[C@H](NC(=O)[C@H](Cc3c[nH]cn3)NC(=O)[C@H](Cc3c[nH]cn3)NC(=O)[C@H](CCC(=O)O)NC1=O)C(=O)N[C@@H](Cc1c[nH]c3ccccc13)C(=O)N[C@@H]([C@@H](C)O)C(=O)N[C@H](C(=O)O)CSSC[C@H](N)C(=O)N[C@@H](C(C)C)C(=O)N[C@@H](C)C(=O)N[C@@H](Cc1ccc(O)cc1)C(=O)N2 [Peptide C-4] (H-CVAYCIEHHCWTC-OH; disulfide 1-13, 5-10; N-terminus and C-terminus assumed)
PSA [4]
  inhibition of the binding of the corresponding GST-peptide to PSA: about 70%
PSA [5]
  cleavage of IGF-BP-3 by PSA in the presence of peptide: about 70%
